Interaction score data for four molecules are collected here from article PMC10397247.

Assay [1] deals with T1, APC2981-AA.
T1 chain: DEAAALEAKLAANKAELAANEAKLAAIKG
In words: two-hybrid library CCmax.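 Also: natural log of median RNA to DNA barcode read ratio; higher means stronger binding.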 The conditions noted are these: mean of both orientations.

In assay [2] the target is T2, APC4100-AA.
T2 chain: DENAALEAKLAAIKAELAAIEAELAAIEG
In words: two-hybrid library CCmax.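 Also: natural log of median RNA to DNA barcode read ratio; higher means stronger binding.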 Particulars: mean of both orientations.

Assay [3] addresses T3, APC2543-AA.
T3 chain: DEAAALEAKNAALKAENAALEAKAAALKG
In words: two-hybrid library CCmax.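 Also: natural log of median RNA to DNA barcode read ratio; higher means stronger binding.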 The conditions noted are these: mean of both orientations.

In assay [4] the target is T4, APC2474-AA.
T4 chain: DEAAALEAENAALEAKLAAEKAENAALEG
In words: two-hybrid library CCmax.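 Also: natural log of median RNA to DNA barcode read ratio; higher means stronger binding.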 The conditions noted are these: mean of both orientations.

Assay [5] has as its target T5, APC9806-AA.
T5 chain: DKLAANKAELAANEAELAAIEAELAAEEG
The assay is described as follows: two-hybrid library CCmax.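 Also: natural log of median RNA to DNA barcode read ratio; higher means stronger binding.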 The conditions noted are these: mean of both orientations.

The target in assay [6] is T6, APC222-AA.
T6 chain: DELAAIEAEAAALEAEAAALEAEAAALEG
In words: two-hybrid library CCmax.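 Also: natural log of median RNA to DNA barcode read ratio; higher means stronger binding.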 The conditions noted are these: mean of both orientations.

In assay [7] the target is T7, APC6088-AA.
T7 chain: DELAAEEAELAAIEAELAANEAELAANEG
In words: two-hybrid library CCmax. The conditions noted are these: mean of both orientations.

Assay [8] has as its target T8, APC8401-AA.
T8 chain: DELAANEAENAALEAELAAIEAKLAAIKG
In words: two-hybrid library CCmax. Particulars: mean of both orientations.

For assay [9], the target named is T9, APC7524-AA.
T9 chain: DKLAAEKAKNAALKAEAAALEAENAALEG
In words: two-hybrid library CCmax. Particulars: mean of both orientations.

Assay [10] addresses T10, APC3265-AA.
T10 chain: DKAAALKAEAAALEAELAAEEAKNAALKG
In words: two-hybrid library CCmax. The conditions noted are these: mean of both orientations.

Assay [11] concerns the target T11, APC5009-AA.
T11 chain: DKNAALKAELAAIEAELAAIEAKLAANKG
The assay is described as follows: two-hybrid library CCmax. Particulars: mean of both orientations.

Assay [12] concerns the target T12, APC3881-AA.
T12 chain: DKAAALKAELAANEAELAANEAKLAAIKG
In words: two-hybrid library CCmax. The conditions noted are these: mean of both orientations.

Assay [13] addresses T13, APC2375-AA.
T13 chain: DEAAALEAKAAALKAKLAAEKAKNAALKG
The assay is described as follows: two-hybrid library CCmax. The conditions noted are these: mean of both orientations.

Assay [14] has as its target T14, APC4336-AA.
T14 chain: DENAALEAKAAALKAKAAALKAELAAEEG
In words: two-hybrid library CCmax. The conditions noted are these: mean of both orientations.

Assay [15] deals with T15, APC2257-AA.
T15 chain: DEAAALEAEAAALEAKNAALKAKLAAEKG
The assay is described as follows: two-hybrid library CCmax. Particulars: mean of both orientations.

The target of assay [16] is T16, APC8516-AA.
T16 chain: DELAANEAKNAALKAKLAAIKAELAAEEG
In words: two-hybrid library CCmax. The conditions noted are these: mean of both orientations.

Assay [17] deals with T17, APC2556-AA.
T17 chain: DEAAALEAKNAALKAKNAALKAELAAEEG
The assay is described as follows: two-hybrid library CCmax. Particulars: mean of both orientations.

Assay [18] has as its target T18, APC9141-AA.
T18 chain: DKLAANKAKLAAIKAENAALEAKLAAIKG
In words: two-hybrid library CCmax. The conditions noted are these: mean of both orientations.

The target in assay [19] is T19, APC3323-AA.
T19 chain: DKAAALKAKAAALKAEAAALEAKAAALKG
In words: two-hybrid library CCmax. Particulars: mean of both orientations.

For assay [20], the target named is T20, APC9291-AA.
T20 chain: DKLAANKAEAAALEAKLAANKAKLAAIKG
In words: two-hybrid library CCmax. The conditions noted are these: mean of both orientations.

For assay [21], the target named is T21, APC3354-AA.
T21 chain: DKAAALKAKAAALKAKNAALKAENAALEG
The assay is described as follows: two-hybrid library CCmax. The conditions noted are these: mean of both orientations.

The target of assay [22] is T22, APC9182-AA.
T22 chain: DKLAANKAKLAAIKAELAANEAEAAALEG
In words: two-hybrid library CCmax. The conditions noted are these: mean of both orientations.

Assay [23] concerns the target T23, APC2724-AA.
T23 chain: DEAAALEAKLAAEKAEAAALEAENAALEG
The assay is described as follows: two-hybrid library CCmax. The conditions noted are these: mean of both orientations.

Assay [24] concerns the target T24, APC2811-AA.
T24 chain: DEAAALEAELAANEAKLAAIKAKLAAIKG
The assay is described as follows: two-hybrid library CCmax. The conditions noted are these: mean of both orientations.

Assay [25] deals with T25, APC5531-AA.
T25 chain: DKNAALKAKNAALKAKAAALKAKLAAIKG
In words: two-hybrid library CCmax. Particulars: mean of both orientations.

Assay [26] concerns the target T26, APC542-AA.
T26 chain: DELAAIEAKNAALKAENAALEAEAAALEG
The assay is described as follows: two-hybrid library CCmax. Particulars: mean of both orientations.

Assay [27] deals with T27, APC1987-AA.
T27 chain: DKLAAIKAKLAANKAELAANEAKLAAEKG
The assay is described as follows: two-hybrid library CCmax.

Assay [28] concerns the target T28, 4H48-bA.
T28 chain: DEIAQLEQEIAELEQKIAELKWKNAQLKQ
The assay is described as follows: two-hybrid library CCNG1.

Assay [29] concerns the target T29, 4H342-bA.
T29 chain: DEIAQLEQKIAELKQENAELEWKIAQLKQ
In words: two-hybrid library CCNG1.

For assay [30], the target named is T30, 4H2944-bA.
T30 chain: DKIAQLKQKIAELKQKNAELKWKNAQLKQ
In words: two-hybrid library CCNG1.

Assay [31] concerns the target T31, 4H491-bA.
T31 chain: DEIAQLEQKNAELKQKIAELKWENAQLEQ
The assay is described as follows: two-hybrid library CCNG1.

In assay [32] the target is T32, 4H2937-bA.
T32 chain: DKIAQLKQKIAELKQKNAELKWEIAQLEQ
The assay is described as follows: two-hybrid library CCNG1.

Assay [33] has as its target T33, 4H342-bH.
T33 chain: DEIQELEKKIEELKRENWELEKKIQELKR
The assay is described as follows: two-hybrid library CCNG1.

The target in assay [34] is T34, 4H491-bH.
T34 chain: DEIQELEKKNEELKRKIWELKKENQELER
In words: two-hybrid library CCNG1.

Assay [35] concerns the target T35, 4H2944-bH.
T35 chain: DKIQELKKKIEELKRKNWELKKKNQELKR
The assay is described as follows: two-hybrid library CCNG1.

Assay [36] concerns the target T36, 4H2937-bH.
T36 chain: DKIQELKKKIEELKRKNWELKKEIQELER
The assay is described as follows: two-hybrid library CCNG1.

The target in assay [37] is T37, 4H48-bH.
T37 chain: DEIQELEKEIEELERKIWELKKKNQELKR
The assay is described as follows: two-hybrid library CCNG1.

Assay [38] has as its target T38, P4SHb.
T38 chain: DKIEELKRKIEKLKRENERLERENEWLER
The assay is described as follows: two-hybrid library CCNG1.

The target of assay [39] is T39, P6SHb.
T39 chain: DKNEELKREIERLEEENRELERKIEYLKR
The assay is described as follows: two-hybrid library CCNG1.

For assay [40], the target named is T40, P9SHb.
T40 chain: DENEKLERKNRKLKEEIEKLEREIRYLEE
The assay is described as follows: two-hybrid library CCNG1.

The target in assay [41] is T41, P2SHb.
T41 chain: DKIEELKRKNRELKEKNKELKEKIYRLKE
In words: two-hybrid library CCNG1.

Assay [42] addresses T42, P1SHb.
T42 chain: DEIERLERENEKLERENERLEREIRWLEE
The assay is described as follows: two-hybrid library CCNG1.

The target of assay [43] is T43, P5SHb.
T43 chain: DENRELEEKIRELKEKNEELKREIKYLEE
The assay is described as follows: two-hybrid library CCNG1.

Assay [44] concerns the target T44, P3SHb.
T44 chain: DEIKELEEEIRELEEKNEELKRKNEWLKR
The assay is described as follows: two-hybrid library CCNG1.

For assay [45], the target named is T45, P8SHb.
T45 chain: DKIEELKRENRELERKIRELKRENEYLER
In words: two-hybrid library CCNG1.

Assay [46] deals with T46, P7SHb.
T46 chain: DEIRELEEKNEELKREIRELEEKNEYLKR
In words: two-hybrid library CCNG1.

As for DKLAAIKAKLAANKAELAANEAKLAAEKG [APC1987-AA], the interaction score in assay [1] was -1.82; in [2] it was -1.33; in assay [3], -2.01; in assay [4], -1.87; in assay [5] it was -1.87; in assay [6] it was -1.81. Besides, the interaction score in assay [7] is -1.6; in assay [8], -1.6; in [9], -1.75; in [10], -1.69; in assay [11], -1.2; in assay [12], -1.66. For the same molecule, the interaction score in assay [13] is -1.68; in assay [14], -1.72; in [15], -1.35; in assay [16] it was -2.25; in [17], -1.78; in assay [18] it was -1.68. Moreover, the interaction score is -2.07 in assay [19]; -1.88 in assay [20]; -1.64 in [21]; -1.95 in assay [22]; -1.7 in [23]; -1.92 in assay [24]. Also, the interaction score in assay [25] was -1.83; in assay [26], -1.67; in assay [27], -2.07.

For DKIAQLKQKIAELKQKNAELKWEIAQLEQ [4H2937-bA], the interaction score in assay [28] is 0.573; in assay [29], 1.61; in [30] it was -0.548; in assay [31], -0.0219; in assay [32], -0.419.

Take DKIQELKKKIEELKRKNWELKKEIQELER [4H2937-bH]: the interaction score was 1.21 in [33]; 0.828 in assay [34]; -0.833 in assay [35]; 0.307 in [36]; 0.185 in [37].

DEIERLERENEKLERENERLEREIRWLEE [P1SHb]: the interaction score in assay [38] was -0.498; in assay [39], -0.147; in assay [40], -0.505; in [41], 1.75; in assay [42] it was -1.02; in [43] it was -0.59. In addition, the figures for the interaction score in [44], in assay [45] and in assay [46] were -1.76, -0.756 and -0.298, respectively.
